Measurements reported in US20110287017A1.

Molecular target: membrane P-selectin coated in a flow chamber (low and high density) (UniProt P16109)
Test: cell-based or functional assay

membrane P-selectin coated in a flow chamber (low and high density), sequence (P16109 42-830 limits assumed): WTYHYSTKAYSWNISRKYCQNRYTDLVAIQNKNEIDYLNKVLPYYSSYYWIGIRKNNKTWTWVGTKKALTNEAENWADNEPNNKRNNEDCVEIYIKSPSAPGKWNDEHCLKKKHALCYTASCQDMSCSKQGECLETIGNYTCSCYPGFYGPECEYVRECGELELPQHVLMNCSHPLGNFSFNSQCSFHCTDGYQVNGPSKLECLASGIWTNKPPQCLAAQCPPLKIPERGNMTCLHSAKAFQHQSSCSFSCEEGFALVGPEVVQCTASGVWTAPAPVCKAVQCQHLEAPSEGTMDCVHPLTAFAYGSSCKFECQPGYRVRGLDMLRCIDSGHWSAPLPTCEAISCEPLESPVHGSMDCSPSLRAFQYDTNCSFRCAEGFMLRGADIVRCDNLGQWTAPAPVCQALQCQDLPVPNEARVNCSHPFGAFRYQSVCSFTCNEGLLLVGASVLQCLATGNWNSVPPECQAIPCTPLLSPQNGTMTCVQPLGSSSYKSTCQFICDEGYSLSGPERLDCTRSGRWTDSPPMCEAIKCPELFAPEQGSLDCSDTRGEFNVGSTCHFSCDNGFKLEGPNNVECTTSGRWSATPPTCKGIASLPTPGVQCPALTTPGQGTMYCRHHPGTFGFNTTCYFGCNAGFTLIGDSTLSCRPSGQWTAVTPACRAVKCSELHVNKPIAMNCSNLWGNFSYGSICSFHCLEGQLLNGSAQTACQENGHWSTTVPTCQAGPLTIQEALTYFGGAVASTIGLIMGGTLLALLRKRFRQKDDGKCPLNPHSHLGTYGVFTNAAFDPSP

G3 mouse monoclonal anti-P-selectin antibody
time to block rolling neutrophils on high density P-selectin: < 20 min
